Values of other authors, collected in paper PMC3978290.
Values joined by “and” are separate entries in the source; they are usually repeats but may differ in a detail not shown here. Equal values may be shown once.

Experiments:
[1] = target: Complement factor H (Homo sapiens) (UniProt P08603); experiment: sedimentation equilibrium
[2] = target: C-reactive protein (Homo sapiens) (UniProt P02741); experiment: SPR
C3b C3b (Homo sapiens) = C3b C3b (Homo sapiens) (UniProt P01024); experiment: SPR
C3u C3u (Homo sapiens) = C3u C3u (Homo sapiens) (UniProt P01024); experiment: sedimentation velocity
Sequence of C3u C3u (Homo sapiens) (P01024 23-667, chain 1 of 2): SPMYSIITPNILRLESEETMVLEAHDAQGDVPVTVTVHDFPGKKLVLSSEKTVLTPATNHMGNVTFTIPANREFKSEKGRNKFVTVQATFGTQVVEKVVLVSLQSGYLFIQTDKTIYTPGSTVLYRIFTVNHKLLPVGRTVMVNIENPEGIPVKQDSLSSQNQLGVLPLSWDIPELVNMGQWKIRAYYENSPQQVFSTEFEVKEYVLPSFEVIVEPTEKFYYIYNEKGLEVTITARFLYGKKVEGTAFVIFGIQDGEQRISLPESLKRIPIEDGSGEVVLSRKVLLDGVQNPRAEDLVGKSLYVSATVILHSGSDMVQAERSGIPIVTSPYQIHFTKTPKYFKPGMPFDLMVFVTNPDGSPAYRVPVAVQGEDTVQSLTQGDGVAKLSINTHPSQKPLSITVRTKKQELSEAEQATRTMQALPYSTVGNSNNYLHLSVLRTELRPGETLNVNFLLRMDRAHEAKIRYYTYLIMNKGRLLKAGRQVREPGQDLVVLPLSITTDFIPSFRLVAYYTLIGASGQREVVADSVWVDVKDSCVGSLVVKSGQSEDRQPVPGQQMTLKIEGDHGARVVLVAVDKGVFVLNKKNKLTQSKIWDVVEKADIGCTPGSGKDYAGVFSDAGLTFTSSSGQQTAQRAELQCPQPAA
Sequence of C3u C3u (Homo sapiens) (P01024 672-1663, chain 2 of 2): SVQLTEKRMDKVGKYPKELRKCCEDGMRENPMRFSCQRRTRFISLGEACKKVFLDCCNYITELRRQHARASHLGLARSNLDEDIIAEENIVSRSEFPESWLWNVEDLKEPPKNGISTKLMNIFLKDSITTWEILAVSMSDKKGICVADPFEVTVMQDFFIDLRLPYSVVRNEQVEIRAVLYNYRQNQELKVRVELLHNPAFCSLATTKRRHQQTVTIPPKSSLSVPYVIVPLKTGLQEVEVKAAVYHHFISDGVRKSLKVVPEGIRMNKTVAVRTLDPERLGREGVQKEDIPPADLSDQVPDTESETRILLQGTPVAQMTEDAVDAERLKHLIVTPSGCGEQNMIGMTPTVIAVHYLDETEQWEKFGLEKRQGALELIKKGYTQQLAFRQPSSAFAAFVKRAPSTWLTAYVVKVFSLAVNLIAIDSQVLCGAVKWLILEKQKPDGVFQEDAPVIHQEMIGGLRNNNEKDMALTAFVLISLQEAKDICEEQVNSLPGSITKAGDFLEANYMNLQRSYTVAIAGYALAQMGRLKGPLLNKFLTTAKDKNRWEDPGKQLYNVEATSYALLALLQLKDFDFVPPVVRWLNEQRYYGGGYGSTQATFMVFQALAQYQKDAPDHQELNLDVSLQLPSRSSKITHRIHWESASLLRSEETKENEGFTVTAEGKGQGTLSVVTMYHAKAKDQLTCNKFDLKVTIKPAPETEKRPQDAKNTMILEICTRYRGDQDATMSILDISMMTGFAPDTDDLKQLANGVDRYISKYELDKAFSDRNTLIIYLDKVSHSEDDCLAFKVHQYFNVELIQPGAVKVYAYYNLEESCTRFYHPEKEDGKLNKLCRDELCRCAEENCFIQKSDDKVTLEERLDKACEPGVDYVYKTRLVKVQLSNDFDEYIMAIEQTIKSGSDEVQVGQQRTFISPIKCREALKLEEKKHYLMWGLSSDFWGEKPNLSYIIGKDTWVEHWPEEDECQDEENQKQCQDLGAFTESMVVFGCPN

Sequence of Complement factor H (P08603 19-1231): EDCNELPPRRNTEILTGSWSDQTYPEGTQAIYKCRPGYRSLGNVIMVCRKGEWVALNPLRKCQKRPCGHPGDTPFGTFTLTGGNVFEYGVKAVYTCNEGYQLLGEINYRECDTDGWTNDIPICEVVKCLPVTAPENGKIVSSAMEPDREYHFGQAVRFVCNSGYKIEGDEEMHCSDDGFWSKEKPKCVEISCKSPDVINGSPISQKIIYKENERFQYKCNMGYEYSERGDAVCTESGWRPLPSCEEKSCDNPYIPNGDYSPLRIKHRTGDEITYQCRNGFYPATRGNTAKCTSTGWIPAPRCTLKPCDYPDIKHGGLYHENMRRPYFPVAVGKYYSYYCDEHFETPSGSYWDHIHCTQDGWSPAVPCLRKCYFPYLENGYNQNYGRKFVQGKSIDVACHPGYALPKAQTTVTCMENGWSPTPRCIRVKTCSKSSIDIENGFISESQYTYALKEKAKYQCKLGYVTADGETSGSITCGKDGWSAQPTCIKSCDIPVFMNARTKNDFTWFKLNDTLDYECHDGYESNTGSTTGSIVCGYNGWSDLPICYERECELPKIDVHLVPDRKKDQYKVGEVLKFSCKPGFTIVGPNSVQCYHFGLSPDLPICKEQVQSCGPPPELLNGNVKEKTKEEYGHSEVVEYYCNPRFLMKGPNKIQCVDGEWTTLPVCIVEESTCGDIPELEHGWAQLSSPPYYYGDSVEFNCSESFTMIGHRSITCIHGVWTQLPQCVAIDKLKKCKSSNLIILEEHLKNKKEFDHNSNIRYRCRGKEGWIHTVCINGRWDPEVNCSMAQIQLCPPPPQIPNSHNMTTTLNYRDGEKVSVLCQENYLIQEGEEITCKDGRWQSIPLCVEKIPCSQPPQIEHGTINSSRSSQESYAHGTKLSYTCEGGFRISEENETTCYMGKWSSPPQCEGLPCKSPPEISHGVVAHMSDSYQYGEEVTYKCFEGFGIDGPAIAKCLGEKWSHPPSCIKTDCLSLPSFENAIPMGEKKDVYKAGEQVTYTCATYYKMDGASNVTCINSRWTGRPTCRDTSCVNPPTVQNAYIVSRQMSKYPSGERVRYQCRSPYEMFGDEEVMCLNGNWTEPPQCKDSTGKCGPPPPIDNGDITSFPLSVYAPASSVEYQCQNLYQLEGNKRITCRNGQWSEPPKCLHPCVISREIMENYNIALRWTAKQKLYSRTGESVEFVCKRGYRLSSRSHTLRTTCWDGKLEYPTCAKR
Sequence of C3b C3b (Homo sapiens) (P01024 566-670): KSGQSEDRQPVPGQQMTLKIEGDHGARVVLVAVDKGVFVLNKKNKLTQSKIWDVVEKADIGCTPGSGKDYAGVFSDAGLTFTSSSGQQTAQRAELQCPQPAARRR
Sequence of Complement factor H SCR-1/4 SCR-1/4 (P08603 19-264): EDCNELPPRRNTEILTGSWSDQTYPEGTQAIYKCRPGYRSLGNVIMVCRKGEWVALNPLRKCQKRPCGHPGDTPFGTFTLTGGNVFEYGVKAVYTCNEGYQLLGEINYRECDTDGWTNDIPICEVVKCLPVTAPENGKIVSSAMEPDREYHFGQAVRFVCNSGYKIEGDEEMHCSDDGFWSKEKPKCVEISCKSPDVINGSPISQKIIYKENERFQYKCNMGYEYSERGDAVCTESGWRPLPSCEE
Sequence of Complement factor H SCR-19/20 (P08603 1107-1231): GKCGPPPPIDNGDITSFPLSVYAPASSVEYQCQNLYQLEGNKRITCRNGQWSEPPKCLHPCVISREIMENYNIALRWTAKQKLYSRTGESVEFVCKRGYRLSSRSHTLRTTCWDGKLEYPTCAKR
Sequence of C-reactive protein (Homo sapiens) (P02741 19-223): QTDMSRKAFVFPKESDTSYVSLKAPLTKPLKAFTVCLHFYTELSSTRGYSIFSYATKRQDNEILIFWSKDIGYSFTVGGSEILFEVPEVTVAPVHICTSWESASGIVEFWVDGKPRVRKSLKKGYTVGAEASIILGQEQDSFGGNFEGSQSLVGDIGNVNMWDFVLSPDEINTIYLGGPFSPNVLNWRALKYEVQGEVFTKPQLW

Kd [1] [µM] | Kd [2] [µM] | Kd (C3b C3b (Homo sapiens)) | Kd (C3u C3u (Homo sapiens)) [µM] | Substance
28 | 4.2 | 1.1 µM | 0.59 | Complement factor H (from UniProt P08603)
– | – | 11.7 µM and 11 µM | – | Complement factor H SCR-1/4 SCR-1/4 (from UniProt P08603)
– | – | 5.4 µM and 0.54 µM | – | Complement factor H SCR-19/20 (from UniProt P08603)
